# Experimental data published in US20110158992A1 (SCHERING, published 2011).
# T1: biotinylated huIL-23R-IgG (human, UniProt Q5VWK5 24-353, biotinylated)
# T1 construct: not shown: human IgG1 Fc
# T1 sequence: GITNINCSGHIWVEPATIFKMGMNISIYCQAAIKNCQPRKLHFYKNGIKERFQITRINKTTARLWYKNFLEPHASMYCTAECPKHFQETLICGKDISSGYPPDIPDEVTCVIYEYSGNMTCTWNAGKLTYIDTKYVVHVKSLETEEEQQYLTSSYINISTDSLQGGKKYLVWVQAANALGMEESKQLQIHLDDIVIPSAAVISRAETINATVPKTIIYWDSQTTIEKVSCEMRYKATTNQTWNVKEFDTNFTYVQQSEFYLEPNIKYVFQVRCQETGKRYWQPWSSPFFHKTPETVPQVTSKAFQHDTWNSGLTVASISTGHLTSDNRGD
# Molecular target: T1, biotinylated huIL-23R-IgG
# Test: ECL binding assay, periplasmic Fab extracts, biotinylated huIL-23R-IgG; AUC vs parental 8B10 Fab
# From the text: The N31T change was introduced as a result of affinity maturation experiments, as follows. An E. coli expression vector for expression into the periplasmic space was constructed encoding a chimeric Fab fragment of rat antibody 8B10 comprising rat variable domains, a human constant light chain domain (CL) and a human constant heavy chain domain CH1. Mutations were introduced using a QuikChange® site directed mutagenesis kit (Stratagene Inc., LaJolla, Calif., USA). Primers were designed to replace selected positions with either alanine, or by all 20 amino acids, using the NNK codon approach (N includes an equimolar mix of A/G/C/T and K includes only G/T). To reduce background, alanine mutants at each position were used as the template for the randomization step. Unpurified periplasmic extracts were then tested for human IL-23R binding activity using an electrochemiluminescence assay with biotinylated huIL-23R-IgG and goat anti-huFab-Ori-Tag for detection. The area under the curve was used to compare the binding activity of sequence variants to the original parental 8B10 Fab. Data were fitted using GraphPad Prism® 3.0 software (Graphpad Software inc., San Diego, Calif. USA).
row,Binder,Binding (% of w.t.)
1,"chimeric 8B10 Fab, VH H102A (Fab, V domains shown, Rat V domains with human CH1 and CL; E. coli periplasmic extract) VH: EVKLVESGGGLEQPKGSLKLSCTVSGFDFNSYGMSWVRQAPGKGLDLVADINSKSYNYATYYADSVKDRFTISRDDSQSMVYLEMDNLKTEDTALYYCTVHASDYFEYWGQGVMVTVSS VL: DIQMTQSPASLSASLGETVSIECLASEDIYNNLAWYQQKPGKSPQLLIYHASSLQDGVPSRFSGSGSGTQYSLKINSLESEDAATYFCLQDSEYPPTFGGGTKLELKR",84.2 % of w.t.
2,"chimeric 8B10 Fab, VH A49G (Fab, V domains shown, Rat V domains with human CH1 and CL; E. coli periplasmic extract) VH: EVKLVESGGGLEQPKGSLKLSCTVSGFDFNSYGMSWVRQAPGKGLDLVGDINSKSYNYATYYADSVKDRFTISRDDSQSMVYLEMDNLKTEDTALYYCTVHHSDYFEYWGQGVMVTVSS VL: DIQMTQSPASLSASLGETVSIECLASEDIYNNLAWYQQKPGKSPQLLIYHASSLQDGVPSRFSGSGSGTQYSLKINSLESEDAATYFCLQDSEYPPTFGGGTKLELKR",79 % of w.t.
3,"chimeric 8B10 Fab, VH D104A (Fab, V domains shown, Rat V domains with human CH1 and CL; E. coli periplasmic extract) VH: EVKLVESGGGLEQPKGSLKLSCTVSGFDFNSYGMSWVRQAPGKGLDLVADINSKSYNYATYYADSVKDRFTISRDDSQSMVYLEMDNLKTEDTALYYCTVHHSAYFEYWGQGVMVTVSS VL: DIQMTQSPASLSASLGETVSIECLASEDIYNNLAWYQQKPGKSPQLLIYHASSLQDGVPSRFSGSGSGTQYSLKINSLESEDAATYFCLQDSEYPPTFGGGTKLELKR",1.5 % of w.t.
4,"chimeric 8B10 Fab, VH F106A (Fab, V domains shown, Rat V domains with human CH1 and CL; E. coli periplasmic extract) VH: EVKLVESGGGLEQPKGSLKLSCTVSGFDFNSYGMSWVRQAPGKGLDLVADINSKSYNYATYYADSVKDRFTISRDDSQSMVYLEMDNLKTEDTALYYCTVHHSDYAEYWGQGVMVTVSS VL: DIQMTQSPASLSASLGETVSIECLASEDIYNNLAWYQQKPGKSPQLLIYHASSLQDGVPSRFSGSGSGTQYSLKINSLESEDAATYFCLQDSEYPPTFGGGTKLELKR",71.1 % of w.t.
5,"chimeric 8B10 Fab, VH Y32A (Fab, V domains shown, Rat V domains with human CH1 and CL; E. coli periplasmic extract) VH: EVKLVESGGGLEQPKGSLKLSCTVSGFDFNSAGMSWVRQAPGKGLDLVADINSKSYNYATYYADSVKDRFTISRDDSQSMVYLEMDNLKTEDTALYYCTVHHSDYFEYWGQGVMVTVSS VL: DIQMTQSPASLSASLGETVSIECLASEDIYNNLAWYQQKPGKSPQLLIYHASSLQDGVPSRFSGSGSGTQYSLKINSLESEDAATYFCLQDSEYPPTFGGGTKLELKR",76.3 % of w.t.
6,"chimeric 8B10 Fab, VH E107A (Fab, V domains shown, Rat V domains with human CH1 and CL; E. coli periplasmic extract) VH: EVKLVESGGGLEQPKGSLKLSCTVSGFDFNSYGMSWVRQAPGKGLDLVADINSKSYNYATYYADSVKDRFTISRDDSQSMVYLEMDNLKTEDTALYYCTVHHSDYFAYWGQGVMVTVSS VL: DIQMTQSPASLSASLGETVSIECLASEDIYNNLAWYQQKPGKSPQLLIYHASSLQDGVPSRFSGSGSGTQYSLKINSLESEDAATYFCLQDSEYPPTFGGGTKLELKR",61 % of w.t.
7,"chimeric 8B10 Fab, VH S103A (Fab, V domains shown, Rat V domains with human CH1 and CL; E. coli periplasmic extract) VH: EVKLVESGGGLEQPKGSLKLSCTVSGFDFNSYGMSWVRQAPGKGLDLVADINSKSYNYATYYADSVKDRFTISRDDSQSMVYLEMDNLKTEDTALYYCTVHHADYFEYWGQGVMVTVSS VL: DIQMTQSPASLSASLGETVSIECLASEDIYNNLAWYQQKPGKSPQLLIYHASSLQDGVPSRFSGSGSGTQYSLKINSLESEDAATYFCLQDSEYPPTFGGGTKLELKR",65.7 % of w.t.
8,"chimeric 8B10 Fab, VH R74A (Fab, V domains shown, Rat V domains with human CH1 and CL; E. coli periplasmic extract) VH: EVKLVESGGGLEQPKGSLKLSCTVSGFDFNSYGMSWVRQAPGKGLDLVADINSKSYNYATYYADSVKDRFTISADDSQSMVYLEMDNLKTEDTALYYCTVHHSDYFEYWGQGVMVTVSS VL: DIQMTQSPASLSASLGETVSIECLASEDIYNNLAWYQQKPGKSPQLLIYHASSLQDGVPSRFSGSGSGTQYSLKINSLESEDAATYFCLQDSEYPPTFGGGTKLELKR",52.6 % of w.t.
9,"chimeric 8B10 Fab, VH S53A (Fab, V domains shown, Rat V domains with human CH1 and CL; E. coli periplasmic extract; also called S53A (heavy chain variable domain)) VH: EVKLVESGGGLEQPKGSLKLSCTVSGFDFNSYGMSWVRQAPGKGLDLVADINAKSYNYATYYADSVKDRFTISRDDSQSMVYLEMDNLKTEDTALYYCTVHHSDYFEYWGQGVMVTVSS VL: DIQMTQSPASLSASLGETVSIECLASEDIYNNLAWYQQKPGKSPQLLIYHASSLQDGVPSRFSGSGSGTQYSLKINSLESEDAATYFCLQDSEYPPTFGGGTKLELKR",88.7 % of w.t.
10,"chimeric 8B10 Fab, VH H101A (Fab, V domains shown, Rat V domains with human CH1 and CL; E. coli periplasmic extract) VH: EVKLVESGGGLEQPKGSLKLSCTVSGFDFNSYGMSWVRQAPGKGLDLVADINSKSYNYATYYADSVKDRFTISRDDSQSMVYLEMDNLKTEDTALYYCTVAHSDYFEYWGQGVMVTVSS VL: DIQMTQSPASLSASLGETVSIECLASEDIYNNLAWYQQKPGKSPQLLIYHASSLQDGVPSRFSGSGSGTQYSLKINSLESEDAATYFCLQDSEYPPTFGGGTKLELKR",29.1 % of w.t.
11,"chimeric 8B10 Fab, VH N52A (Fab, V domains shown, Rat V domains with human CH1 and CL; E. coli periplasmic extract) VH: EVKLVESGGGLEQPKGSLKLSCTVSGFDFNSYGMSWVRQAPGKGLDLVADIASKSYNYATYYADSVKDRFTISRDDSQSMVYLEMDNLKTEDTALYYCTVHHSDYFEYWGQGVMVTVSS VL: DIQMTQSPASLSASLGETVSIECLASEDIYNNLAWYQQKPGKSPQLLIYHASSLQDGVPSRFSGSGSGTQYSLKINSLESEDAATYFCLQDSEYPPTFGGGTKLELKR",38.7 % of w.t.
12,"chimeric 8B10 Fab, VH K54A (Fab, V domains shown, Rat V domains with human CH1 and CL; E. coli periplasmic extract) VH: EVKLVESGGGLEQPKGSLKLSCTVSGFDFNSYGMSWVRQAPGKGLDLVADINSASYNYATYYADSVKDRFTISRDDSQSMVYLEMDNLKTEDTALYYCTVHHSDYFEYWGQGVMVTVSS VL: DIQMTQSPASLSASLGETVSIECLASEDIYNNLAWYQQKPGKSPQLLIYHASSLQDGVPSRFSGSGSGTQYSLKINSLESEDAATYFCLQDSEYPPTFGGGTKLELKR",71.1 % of w.t.
13,"chimeric 8B10 Fab, VH S31A (Fab, V domains shown, Rat V domains with human CH1 and CL; E. coli periplasmic extract) VH: EVKLVESGGGLEQPKGSLKLSCTVSGFDFNAYGMSWVRQAPGKGLDLVADINSKSYNYATYYADSVKDRFTISRDDSQSMVYLEMDNLKTEDTALYYCTVHHSDYFEYWGQGVMVTVSS VL: DIQMTQSPASLSASLGETVSIECLASEDIYNNLAWYQQKPGKSPQLLIYHASSLQDGVPSRFSGSGSGTQYSLKINSLESEDAATYFCLQDSEYPPTFGGGTKLELKR",100 % of w.t.
14,"chimeric 8B10 Fab, VH Y61A (Fab, V domains shown, Rat V domains with human CH1 and CL; E. coli periplasmic extract) VH: EVKLVESGGGLEQPKGSLKLSCTVSGFDFNSYGMSWVRQAPGKGLDLVADINSKSYNYATAYADSVKDRFTISRDDSQSMVYLEMDNLKTEDTALYYCTVHHSDYFEYWGQGVMVTVSS VL: DIQMTQSPASLSASLGETVSIECLASEDIYNNLAWYQQKPGKSPQLLIYHASSLQDGVPSRFSGSGSGTQYSLKINSLESEDAATYFCLQDSEYPPTFGGGTKLELKR",41.7 % of w.t.
15,"chimeric 8B10 Fab, VH S55A (Fab, V domains shown, Rat V domains with human CH1 and CL; E. coli periplasmic extract) VH: EVKLVESGGGLEQPKGSLKLSCTVSGFDFNSYGMSWVRQAPGKGLDLVADINSKAYNYATYYADSVKDRFTISRDDSQSMVYLEMDNLKTEDTALYYCTVHHSDYFEYWGQGVMVTVSS VL: DIQMTQSPASLSASLGETVSIECLASEDIYNNLAWYQQKPGKSPQLLIYHASSLQDGVPSRFSGSGSGTQYSLKINSLESEDAATYFCLQDSEYPPTFGGGTKLELKR",105 % of w.t.
16,"chimeric 8B10 Fab, VH G33A (Fab, V domains shown, Rat V domains with human CH1 and CL; E. coli periplasmic extract) VH: EVKLVESGGGLEQPKGSLKLSCTVSGFDFNSYAMSWVRQAPGKGLDLVADINSKSYNYATYYADSVKDRFTISRDDSQSMVYLEMDNLKTEDTALYYCTVHHSDYFEYWGQGVMVTVSS VL: DIQMTQSPASLSASLGETVSIECLASEDIYNNLAWYQQKPGKSPQLLIYHASSLQDGVPSRFSGSGSGTQYSLKINSLESEDAATYFCLQDSEYPPTFGGGTKLELKR",27.4 % of w.t.
17,"chimeric 8B10 Fab, VH I51A (Fab, V domains shown, Rat V domains with human CH1 and CL; E. coli periplasmic extract) VH: EVKLVESGGGLEQPKGSLKLSCTVSGFDFNSYGMSWVRQAPGKGLDLVADANSKSYNYATYYADSVKDRFTISRDDSQSMVYLEMDNLKTEDTALYYCTVHHSDYFEYWGQGVMVTVSS VL: DIQMTQSPASLSASLGETVSIECLASEDIYNNLAWYQQKPGKSPQLLIYHASSLQDGVPSRFSGSGSGTQYSLKINSLESEDAATYFCLQDSEYPPTFGGGTKLELKR",123 % of w.t.
18,"chimeric 8B10 Fab, VH Y58G (Fab, V domains shown, Rat V domains with human CH1 and CL; E. coli periplasmic extract) VH: EVKLVESGGGLEQPKGSLKLSCTVSGFDFNSYGMSWVRQAPGKGLDLVADINSKSYNGATYYADSVKDRFTISRDDSQSMVYLEMDNLKTEDTALYYCTVHHSDYFEYWGQGVMVTVSS VL: DIQMTQSPASLSASLGETVSIECLASEDIYNNLAWYQQKPGKSPQLLIYHASSLQDGVPSRFSGSGSGTQYSLKINSLESEDAATYFCLQDSEYPPTFGGGTKLELKR",53 % of w.t.
19,"chimeric 8B10 Fab, VH D50A (Fab, V domains shown, Rat V domains with human CH1 and CL; E. coli periplasmic extract) VH: EVKLVESGGGLEQPKGSLKLSCTVSGFDFNSYGMSWVRQAPGKGLDLVAAINSKSYNYATYYADSVKDRFTISRDDSQSMVYLEMDNLKTEDTALYYCTVHHSDYFEYWGQGVMVTVSS VL: DIQMTQSPASLSASLGETVSIECLASEDIYNNLAWYQQKPGKSPQLLIYHASSLQDGVPSRFSGSGSGTQYSLKINSLESEDAATYFCLQDSEYPPTFGGGTKLELKR",67.3 % of w.t.
